The record followed here is doi:10.1101/2021.12.21.473685 (bioRxiv, 2021).

One data set addresses PARylated PARP2 (human, UniProt Q9UGN5-2 1-570, poly(ADP-ribose) chains added by in vitro automodification; modified residues not stated). Kind of data set: ITC. A general note: In ITC the heat of successive injections is recorded.
For another data set, the target named is PARP1 full length (Homo sapiens, UniProt P09874 1-1014). Briefly: fluorescence polarization. On the technique in general: In fluorescence polarisation assays a small probe gives low polarisation when free and higher when bound to something large.
Chain of PARP1 full length (P09874 whole entry): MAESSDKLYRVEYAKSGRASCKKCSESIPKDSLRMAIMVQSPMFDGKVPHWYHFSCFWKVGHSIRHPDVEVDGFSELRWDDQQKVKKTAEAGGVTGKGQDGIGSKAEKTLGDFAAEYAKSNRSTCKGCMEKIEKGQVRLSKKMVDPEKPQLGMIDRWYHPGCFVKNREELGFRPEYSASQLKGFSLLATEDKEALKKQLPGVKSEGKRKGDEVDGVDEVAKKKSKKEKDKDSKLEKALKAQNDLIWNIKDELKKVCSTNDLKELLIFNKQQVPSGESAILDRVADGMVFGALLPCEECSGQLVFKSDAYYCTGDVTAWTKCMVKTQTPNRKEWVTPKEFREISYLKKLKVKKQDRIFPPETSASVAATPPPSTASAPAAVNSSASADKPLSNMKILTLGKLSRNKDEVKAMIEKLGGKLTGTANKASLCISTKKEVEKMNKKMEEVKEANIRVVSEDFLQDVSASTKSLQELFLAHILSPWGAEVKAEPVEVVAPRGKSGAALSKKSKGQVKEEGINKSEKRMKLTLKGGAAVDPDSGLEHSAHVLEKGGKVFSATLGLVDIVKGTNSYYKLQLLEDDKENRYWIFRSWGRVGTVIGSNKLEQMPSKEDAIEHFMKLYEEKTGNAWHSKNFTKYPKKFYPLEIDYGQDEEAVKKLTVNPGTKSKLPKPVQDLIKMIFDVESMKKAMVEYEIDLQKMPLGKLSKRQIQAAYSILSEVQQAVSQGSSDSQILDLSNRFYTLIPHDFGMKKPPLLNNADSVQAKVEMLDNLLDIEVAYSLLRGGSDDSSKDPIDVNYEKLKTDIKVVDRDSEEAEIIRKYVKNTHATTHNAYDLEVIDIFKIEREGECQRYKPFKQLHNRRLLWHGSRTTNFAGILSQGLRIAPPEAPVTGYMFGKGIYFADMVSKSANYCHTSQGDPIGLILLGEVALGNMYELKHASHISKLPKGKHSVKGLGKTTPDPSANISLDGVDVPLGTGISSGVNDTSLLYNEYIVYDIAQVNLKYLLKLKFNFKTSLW
Another data set concerns the target ZnF(1-2-3)-BRCT PARP1 (Homo sapiens, UniProt P09874 1-494). Kind of data set: fluorescence polarization.

As a reminder, the Kd is the constant that tells how readily two partners part at equilibrium. High values mean lower affinity, low ones higher affinity.

Chain of ZnF(1-2-3)-BRCT PARP1 (P09874 1-494): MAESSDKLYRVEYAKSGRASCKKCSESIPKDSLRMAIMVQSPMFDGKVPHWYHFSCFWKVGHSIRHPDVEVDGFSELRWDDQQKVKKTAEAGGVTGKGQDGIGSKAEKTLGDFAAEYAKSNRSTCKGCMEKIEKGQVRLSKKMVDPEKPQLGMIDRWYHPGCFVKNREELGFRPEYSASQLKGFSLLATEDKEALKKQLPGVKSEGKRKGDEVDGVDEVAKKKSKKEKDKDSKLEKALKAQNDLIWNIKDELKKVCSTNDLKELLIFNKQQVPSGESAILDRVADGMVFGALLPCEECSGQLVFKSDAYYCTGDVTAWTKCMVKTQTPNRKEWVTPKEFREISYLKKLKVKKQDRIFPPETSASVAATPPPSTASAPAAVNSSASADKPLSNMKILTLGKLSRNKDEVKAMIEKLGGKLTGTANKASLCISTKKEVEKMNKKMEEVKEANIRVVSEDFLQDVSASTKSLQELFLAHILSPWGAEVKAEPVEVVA

In turn, “ZnF3 domain of PARP1 (domain or fragment)” displayed a Kd with PARylated PARP2 of 2000 nM.
The molecule “WGR domain of PARP1 (domain or fragment)” gave a Kd with PARylated PARP2 of 3000 nM.
Molecule “BRCT domain of PARP1 (from UniProt P09874 385-476) (domain or fragment)” showed an equilibrium dissociation constant (Kd) with PARylated PARP2 of 2000 nM.
Consider GCTGGCTTCGTAAGAAGCCAGCTCGCGGTCAGCTTGCTGACCGCG (structured_DNA, 5'-phosphate (printed for unlabelled oligo)) [SSB DNA dumbbell 45-mer (5-FAM labelled)], for which the values for the Kd with PARP1 full length and with ZnF(1-2-3)-BRCT PARP1 were approximately 64 nM and approximately 70 nM, respectively.

B1: ZnF3-BRCT-WGR of PARP1 (domain or fragment)
chain: VDEVAKKKSKKEKDKDSKLEKALKAQNDLIWNIKDELKKVCSTNDLKELLIFNKQQVPSGESAILDRVADGMVFGALLPCEECSGQLVFKSDAYYCTGDVTAWTKCMVKTQTPNRKEWVTPKEFREISYLKKLKVKKQDRIFPPETSASVAATPPPSTASAPAAVNSSASADKPLSNMKILTLGKLSRNKDEVKAMIEKLGGKLTGTANKASLCISTKKEVEKMNKKMEEVKEANIRVVSEDFLQDVSASTKSLQELFLAHILSPWGAEVKAEPVEVVAPRGKSGAALSKKSKGQVKEEGINKSEKRMKLTLKGGAAVDPDSGLEHSAHVLEKGGKVFSATLGLVDIVKGTNSYYKLQLLEDDKENRYWIFRSWGRVGTVIGSNKLEQMPSKEDAIEHFMKLYEEKTGNAWHSKNFTKYPKKFYPLEIDYGQDEEAVKKLTVNPGT
B1 had a Kd with PARylated PARP2 of 40 nM.

B2: DSB DNA (5-FAM labelled) (dsDNA)
DNA 1: GCCTACCGGTTCGAATGGCAGC
DNA 2: GCTGCCATTCGAACCGGTAGGC
As for B2, the dissociation constant Kd with PARP1 full length is approximately 15 nM; with ZnF(1-2-3)-BRCT PARP1, approximately 88 nM.
